Results: paper PMC2112417

Legend:
[1] = target: PDGF receptor on Swiss mouse 3T3 cells (mouse (endogenous in Swiss 3T3)) (UniProt P05622); assay: radioligand binding
[2] = target: EGF receptor on Swiss mouse 3T3 cells (mouse (endogenous in Swiss 3T3)) (UniProt Q01279); assay: radioligand binding

Sequence of UniProt P05622 (P05622 32-1098): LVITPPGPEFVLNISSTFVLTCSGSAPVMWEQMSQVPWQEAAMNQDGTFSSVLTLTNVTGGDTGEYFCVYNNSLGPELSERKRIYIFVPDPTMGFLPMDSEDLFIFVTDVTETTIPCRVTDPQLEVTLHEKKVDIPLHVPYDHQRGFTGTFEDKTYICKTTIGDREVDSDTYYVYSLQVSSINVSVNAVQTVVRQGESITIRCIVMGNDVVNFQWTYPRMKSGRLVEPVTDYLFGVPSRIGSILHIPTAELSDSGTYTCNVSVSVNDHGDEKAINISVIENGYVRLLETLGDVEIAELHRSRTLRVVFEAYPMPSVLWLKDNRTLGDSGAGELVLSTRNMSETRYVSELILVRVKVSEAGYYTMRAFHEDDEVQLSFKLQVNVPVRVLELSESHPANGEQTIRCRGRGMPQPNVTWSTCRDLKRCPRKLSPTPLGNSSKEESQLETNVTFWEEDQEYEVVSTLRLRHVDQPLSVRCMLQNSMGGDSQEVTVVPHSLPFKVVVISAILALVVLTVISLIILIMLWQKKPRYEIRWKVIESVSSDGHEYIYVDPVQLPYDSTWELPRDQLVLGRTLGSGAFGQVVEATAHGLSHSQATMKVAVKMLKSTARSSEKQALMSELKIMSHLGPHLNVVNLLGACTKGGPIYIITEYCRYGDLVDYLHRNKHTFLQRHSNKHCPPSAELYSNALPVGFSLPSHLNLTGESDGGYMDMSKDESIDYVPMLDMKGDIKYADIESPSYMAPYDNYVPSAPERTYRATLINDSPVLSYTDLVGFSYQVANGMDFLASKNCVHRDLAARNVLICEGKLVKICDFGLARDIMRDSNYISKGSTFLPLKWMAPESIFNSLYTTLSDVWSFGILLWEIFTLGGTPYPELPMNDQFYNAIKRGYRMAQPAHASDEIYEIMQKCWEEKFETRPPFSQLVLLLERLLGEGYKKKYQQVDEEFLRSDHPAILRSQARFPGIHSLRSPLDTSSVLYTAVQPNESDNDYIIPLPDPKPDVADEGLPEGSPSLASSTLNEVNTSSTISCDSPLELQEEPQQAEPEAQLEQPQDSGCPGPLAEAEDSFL

binding to acid-treated cultures, % of binding to untreated cultures [1] [%]	% of prebound ligand removed by 3 min 0.1% acetic acid [2] [%]	EC50 [2] [nM]	binding to acid-treated cultures, % of binding to untreated cultures [2] [%]	decrease in 125I-EGF binding after preincubation with 2 ng/ml PDGF [2] [%]	half-maximal binding after preincubation with 0.5 ng/ml PDGF [2] [nM]	half-maximal binding after preincubation with 10 ng/ml PDGF [2] [nM]	Substance
103	–	–	–	–	–	–	125I-platelet-derived growth factor (from UniProt P04085 87-211; P01127 82-190) (ligand)
–	78	1.3	101	60	1.6	2	125I-epidermal growth factor (ligand)
